The values that follow come from publication PMC7350215, “Features of the Human Antibody Response against the Respiratory Syncytial Virus Surface Glycoprotein G” (Vaccines, 2020).

The data set deals with the molecule itself. In words: non-reducing SDS-PAGE with immunoblot; purified A2-G separated under non-reducing or reducing conditions, blot stained with anti-His antibodies. In general terms: In western blotting, separated proteins are transferred to a membrane and probed.

B1: Recombinant RSV A2-derived G protein (extracellular domain of the attachment glycoprotein G, amino acids 66 to 298) (domain or fragment)
chain: NHKVTPTTAIIQDATSQIKNTTPTYLTQNPQLGISPSNPSEITSQITTILASTTPGVKSTLQSTTVKTKNTTTTQTQPSKPTTKQRQNKPPSKPNNDFHFEVFNFVPCSICSNNPTCWAICKRIPNKKPGKKTTTKPTKKPTLKTTKKDPKPQTTKSKEVPTTKPTEEPTINTTKTNIITTLLTSNTTGNPELTSQMETFHSTSSEGNPSPSQVSTTSEYPSQPSSPPNTPRQ
notes: Attachment glycoprotein G of respiratory syncytial virus strain A2, UniProtKB/Swiss-Prot P03423.1, extracellular domain, amino acids 66 to 298 (N66 to Q298); also called A2-G; recombinant His-tagged A2-G; not shown: His6, C-terminal, kept
For B1, the binding result is “binds”.
